The text below walks through data of patent US20240173398A1 (MAX PLANCK GESELLSCHAFT ZUR F RDERUNG DER WISSENSCHAFTEN E V, published 2024).

The test concerns the target SARS-CoV-2 S1 334-526 N343D (SARS-CoV-2, UniProt P0DTC2 334-526). As to the kind of experiment: co-secretion from Pichia pastoris; biochemical and structural analysis.

B1: VHH antibody Re21D01 (VHH)
VHH: QVQLVESGGALVQPGGSLRLSCVASGFTFSSFAMGWYRQAPGKECEWVATITITGGSTNYADSVKGRFTISRDNAKNTVYLQMNSLKPEDTAVYYCNPDPGCRRGQGTQVTVSS
For B1, the binding result is on record as “binds”.
